From paper doi:10.1101/746693 (bioRxiv, 2019)

Molecular target: T1, Proteinase Activated Receptor-4 (PAR4)-YFP, wild type (human, UniProt Q96RI0 48-385)
T1 sequence (looked up): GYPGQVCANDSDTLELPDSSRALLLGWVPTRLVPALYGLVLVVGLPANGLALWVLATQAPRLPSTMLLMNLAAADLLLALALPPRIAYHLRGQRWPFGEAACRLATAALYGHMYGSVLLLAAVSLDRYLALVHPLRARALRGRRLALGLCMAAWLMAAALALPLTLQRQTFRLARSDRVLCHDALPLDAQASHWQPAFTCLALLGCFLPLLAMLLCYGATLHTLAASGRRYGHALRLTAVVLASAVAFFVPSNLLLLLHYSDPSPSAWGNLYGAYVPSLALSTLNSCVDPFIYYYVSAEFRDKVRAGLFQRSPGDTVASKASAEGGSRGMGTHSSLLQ
Assay: FRET or BRET

B1: β-arrestin-1-renilla luciferase (natural protein, UniProt P49407 1-418, looked up)
chain: MGDKGTRVFKKASPNGKLTVYLGKRDFVDHIDLVDPVDGVVLVDPEYLKERRVYVTLTCAFRYGREDLDVLGLTFRKDLFVANVQSFPPAPEDKKPLTRLQERLIKKLGEHAYPFTFEIPPNLPCSVTLQPGPEDTGKACGVDYEVKAFCAENLEEKIHKRNSVRLVIRKVQYAPERPGPQPTAETTRQFLMSDKPLHLEASLDKEIYYHGEPISVNVHVTNNTNKTVKKIKISVRQYADICLFNTAQYKCPVAMEEADDTVAPSSTFCKVYTLTPFLANNREKRGLALDGKLKHEDTNLASSTLLREGANREILGIIVSYKVKVKLVVSRGGLLGDLASSDVAVELPFTLMHPKPKEEPPHREVPENETPVDTNLIELDTNDDDIVFEDFARQRLKGMKDDKEEEEDGTGSPQLNNR
EC50 of (N-Me-A)-YPGKF-NH2 for recruitment (BRET): 6.8 µM
EC50 of A-(N-Me-Y)-PGKF-NH2 for recruitment (BRET): 14.2 µM
EC50 of AYPG-(Nα-Me-K)-F-NH2 for recruitment (BRET): 12.2 µM
EC50 of AYPGK-(N-Me-F)-NH2 for recruitment (BRET): 10.4 µM
EC50 of Ac-AYPGKF-NH2 for recruitment (BRET): 15 µM
EC50 of VYPGKF-NH2 for recruitment (BRET): 33.8 µM
